# Source: article PMC8782169, “The distinct RNA-interaction modes of a small ZnF domain underlay TUT4(7) diverse action in miRNA regulation”
# T1: hTUT4 CCHC-ZnF2 (Homo sapiens, UniProt Q5TAX3 1293-1321)
# T1 chain: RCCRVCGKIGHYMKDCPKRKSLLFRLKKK
# T2: hTUT4 CCHC-ZnF2-3 (Homo sapiens, UniProt Q5TAX3 1293-1382)
# T2 sequence: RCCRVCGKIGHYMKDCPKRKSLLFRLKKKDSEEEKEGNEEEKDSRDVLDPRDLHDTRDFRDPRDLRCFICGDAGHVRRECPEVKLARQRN
# B1: UUUGGA RNA (short RNA with SIA sequence) (ssRNA)
# RNA: UUUGGA
# B2: UUUU RNA (ssRNA)
# RNA: UUUU
# B3: CGGA RNA (ssRNA)
# RNA: CGGA
# B4: Let-7i miRNA (ssRNA)
# RNA: UGAGGUAGUAGUUUGUGCUGUU
# Columns and labels:
# Conditions in all cases: protein: recombinant; tags: N-terminal His6 removed by TEV
# hTUT4 CCHC-ZnF2 [1] = target: T1, hTUT4 CCHC-ZnF2; assay: BLI; NMR: 10 mM Tris-HCl pH 7.4, 100 mM NaCl, 0.5 mM TCEP, 10 uM ZnCl2, 25 C, 50 uM protein; BLI: streptavidin sensors, 1-8 uM protein, buffer not in material
# hTUT4 CCHC-ZnF2-3 [2] = target: T2, hTUT4 CCHC-ZnF2-3; assay: BLI; affinity very similar to ZnF2 (value in figure only); NMR: 10 mM Tris-HCl pH 7.4, 100 mM NaCl, 0.5 mM TCEP, 10 uM ZnCl2, 25 C, 50 uM protein; BLI: streptavidin sensors, 1-8 uM protein, buffer not in material
# hTUT4 CCHC-ZnF2 [3] = target: T1, hTUT4 CCHC-ZnF2; assay: NMR titration (15N HSQC CSP); 10 uM ZnCl2; protein:RNA 1:10; NMR: 10 mM Tris-HCl pH 7.4, 100 mM NaCl, 0.5 mM TCEP, 10 uM ZnCl2, 25 C, 50 uM protein; BLI: streptavidin sensors, 1-8 uM protein, buffer not in material
# hTUT4 CCHC-ZnF2 [4] = target: T1, hTUT4 CCHC-ZnF2; assay: NMR titration (15N HSQC CSP); 10 uM ZnCl2; NMR: 10 mM Tris-HCl pH 7.4, 100 mM NaCl, 0.5 mM TCEP, 10 uM ZnCl2, 25 C, 50 uM protein; BLI: streptavidin sensors, 1-8 uM protein, buffer not in material
# hTUT4 CCHC-ZnF2-3 [5] = target: T2, hTUT4 CCHC-ZnF2-3; assay: BLI; affinity very similar to ZnF2; ~2-fold slower association and slightly longer lifetime (value in figure only); NMR: 10 mM Tris-HCl pH 7.4, 100 mM NaCl, 0.5 mM TCEP, 10 uM ZnCl2, 25 C, 50 uM protein; BLI: streptavidin sensors, 1-8 uM protein, buffer not in material
binder,measurement,setting,value
B1,Kd,hTUT4 CCHC-ZnF2 [1],~4 µM
same,binding result,hTUT4 CCHC-ZnF2-3 [2],binds
B2,binding result,hTUT4 CCHC-ZnF2 [3],no binding
B3,Kd,hTUT4 CCHC-ZnF2 [4],3.7 ± 0.4 µM
B4,binding result,hTUT4 CCHC-ZnF2-3 [5],binds
same,Kd,hTUT4 CCHC-ZnF2 [1],~4 µM
